Test [1] has as its target Rhesus monkey glycophorin A on Rhesus monkey red blood cells (Rhesus monkey). The test can be described thus: FACS, RBC Rh03. (In general: In flow cytometry, cells or beads pass a laser one at a time.)
Test [2] shares this target. The test can be described thus: FACS, RBC Rh02.
Test [3] has the same target. The test can be described thus: FACS, RBC Rh01.
For test [4], the target named is Cynomolgus monkey glycophorin A on Cynomolgus monkey red blood cells (Cynomolgus monkey). The test can be described thus: FACS, RBC Cy02.
For test [5] the target is unchanged. The test can be described thus: FACS, RBC Cy01.
Test [6] addresses endogenous Cynomolgus monkey FVIII in whole blood (Cynomolgus monkey). The test can be described thus: cell-based or functional assay.

Sequence of Rhesus monkey glycophorin A on Rhesus monkey red blood cells (Rhesus monkey) (chain, as listed by the source, form in doubt): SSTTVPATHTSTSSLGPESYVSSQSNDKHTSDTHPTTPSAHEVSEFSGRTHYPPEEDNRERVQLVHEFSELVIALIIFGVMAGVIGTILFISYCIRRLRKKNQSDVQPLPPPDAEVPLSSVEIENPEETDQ
Sequence of endogenous Cynomolgus monkey FVIII in whole blood (Cynomolgus monkey) (chain, as listed by the source): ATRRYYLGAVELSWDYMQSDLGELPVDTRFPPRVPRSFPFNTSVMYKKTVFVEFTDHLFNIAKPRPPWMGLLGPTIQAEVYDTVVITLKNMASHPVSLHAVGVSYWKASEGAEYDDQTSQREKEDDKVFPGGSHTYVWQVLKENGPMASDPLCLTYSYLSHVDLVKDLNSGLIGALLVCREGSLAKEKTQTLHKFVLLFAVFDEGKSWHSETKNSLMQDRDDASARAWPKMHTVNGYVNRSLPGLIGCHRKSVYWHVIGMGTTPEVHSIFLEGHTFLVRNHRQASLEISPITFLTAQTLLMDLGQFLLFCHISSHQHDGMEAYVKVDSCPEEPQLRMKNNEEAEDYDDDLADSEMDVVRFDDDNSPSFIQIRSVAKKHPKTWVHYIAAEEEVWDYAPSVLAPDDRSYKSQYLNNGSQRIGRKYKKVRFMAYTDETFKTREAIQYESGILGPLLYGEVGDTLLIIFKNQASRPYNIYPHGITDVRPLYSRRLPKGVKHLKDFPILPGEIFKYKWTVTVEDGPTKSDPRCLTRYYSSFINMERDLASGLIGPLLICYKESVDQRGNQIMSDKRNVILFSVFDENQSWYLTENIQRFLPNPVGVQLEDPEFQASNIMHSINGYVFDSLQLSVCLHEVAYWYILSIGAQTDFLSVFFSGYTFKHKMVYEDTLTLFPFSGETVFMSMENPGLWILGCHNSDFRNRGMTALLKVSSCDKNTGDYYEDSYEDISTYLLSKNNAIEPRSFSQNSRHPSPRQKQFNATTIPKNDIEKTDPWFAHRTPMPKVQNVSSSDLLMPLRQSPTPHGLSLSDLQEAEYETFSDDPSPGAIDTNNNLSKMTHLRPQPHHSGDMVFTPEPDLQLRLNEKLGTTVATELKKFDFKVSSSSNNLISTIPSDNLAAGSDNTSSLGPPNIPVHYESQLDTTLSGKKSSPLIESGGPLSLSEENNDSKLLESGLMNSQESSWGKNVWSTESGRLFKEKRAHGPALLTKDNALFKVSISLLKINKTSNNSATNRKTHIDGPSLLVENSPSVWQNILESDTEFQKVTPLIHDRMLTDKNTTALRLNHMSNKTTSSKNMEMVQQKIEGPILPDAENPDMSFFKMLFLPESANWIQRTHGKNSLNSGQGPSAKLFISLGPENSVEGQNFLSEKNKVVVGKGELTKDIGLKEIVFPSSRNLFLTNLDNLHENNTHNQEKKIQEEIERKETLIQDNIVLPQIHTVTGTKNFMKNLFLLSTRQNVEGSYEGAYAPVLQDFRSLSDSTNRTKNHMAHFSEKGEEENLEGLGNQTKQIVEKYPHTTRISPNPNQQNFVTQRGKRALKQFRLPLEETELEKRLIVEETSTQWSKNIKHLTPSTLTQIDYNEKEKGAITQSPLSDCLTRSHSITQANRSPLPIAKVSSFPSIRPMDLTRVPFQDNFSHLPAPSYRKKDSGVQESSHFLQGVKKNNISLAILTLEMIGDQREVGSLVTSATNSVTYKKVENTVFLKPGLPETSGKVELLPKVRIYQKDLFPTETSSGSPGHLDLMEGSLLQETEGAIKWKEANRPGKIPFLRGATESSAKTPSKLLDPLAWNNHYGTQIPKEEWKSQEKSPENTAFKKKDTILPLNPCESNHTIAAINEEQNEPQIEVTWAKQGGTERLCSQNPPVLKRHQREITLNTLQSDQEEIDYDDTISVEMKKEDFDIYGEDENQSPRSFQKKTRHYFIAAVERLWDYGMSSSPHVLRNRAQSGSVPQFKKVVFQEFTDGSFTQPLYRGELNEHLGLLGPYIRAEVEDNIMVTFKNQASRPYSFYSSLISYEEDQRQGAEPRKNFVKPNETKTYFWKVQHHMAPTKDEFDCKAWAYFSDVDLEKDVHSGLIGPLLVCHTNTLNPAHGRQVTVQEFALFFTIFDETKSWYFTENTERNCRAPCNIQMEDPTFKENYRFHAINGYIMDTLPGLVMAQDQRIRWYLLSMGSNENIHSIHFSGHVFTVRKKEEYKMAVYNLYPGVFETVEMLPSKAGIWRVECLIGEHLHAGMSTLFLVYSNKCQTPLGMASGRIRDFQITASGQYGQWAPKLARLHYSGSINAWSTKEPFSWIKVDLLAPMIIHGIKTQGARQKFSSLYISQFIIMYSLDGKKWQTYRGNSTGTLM

For Hu igG isotype (antibody), the fluorescence intensity in test [1] came to 2; in test [2] it was 2; in test [3], 2; in test [4], 3; in test [5], 2.
In the case of “anti-FVIII neutralizing monoclonal antibody BO2C11”, the Hemochron aPTT clotting time, Cyno whole blood in test [6] was determined as 180 s.

The values above are taken from patent US20190359687A1.
